Results from the supplement of paper PMC10567573.
± gives the standard deviation.

Assay: protein stability index of a GFP-peptide fusion (GPS, HEK-293T) (PSI 1-6); higher = more stable
Details: c terminus: a fixed tail appended
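Note: 24-mer peptide tiles fused after GFP, lentivirally expressed, FACS-sorted into six equal bins by GFP/DsRed ratio, decoded by Illumina sequencing, PSI is the read-weighted mean bin number.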

Sequence | protein stability index (treatment: DMSO) | protein stability index (treatment: MLN4924 1 uM, 8 h)
CILVEMHTGEPLFSGSNEVDQMNR [DYRK1B] | 2.58 ± 0.07 | 2.58 ± 0.22
PVLRFDALWQVLARDCFATGRHYW [TRIM14] | 3.5 ± 0.53 | 3.21 ± 0.88
YIQSRADTMQNIESTIVELGSIFQ [STX5] | 2.33 ± 0.2 | 2.62 ± 0.29
EEPVPRERDRDPCGGSGGGGGGGG [LURAP1L] | 5.69 ± 0.29 | 5.67 ± 0.22
YTNSAGVPSLNAALMHTLQRHRDI [GOSR1] | 2.79 ± 0.15 | 2.92 ± 0.23
NQRAMDLYKALGAQDLTEAEGWHF [SAT2] | 3.28 ± 0.25 | 3.14 ± 0.28
ATTIDNSRVILEIDNARLAADDFR [KRT15] | 3.7 ± 0.31 | 3.74 ± 0.3
MDGESEEEQESVDTGEEEEGGDES [EHMT1] | 5.66 ± 0.15 | 5.51 ± 0.16
EAPASVVPFVRVKREREVDEDSEP [USP39] | 5.51 ± 0.17 | 5.51 ± 0.2
VLRGLARPEHPPPAPTGQDDPQSQ [TMEM175] | 5.39 ± 0.45 | 5.54 ± 0.22
SVDPIAAFCSSDEELEDSKALLYL [RBBP5] | 3.94 ± 0.26 | 4.08 ± 0.36
QQFQPAGTDQVCVLEWGAEGVAGK [FCHSD1] | 4.46 ± 0.24 | 4.64 ± 0.23
DHYQRVKREREKEDIALNKHRSRR [RHOBTB1] | 4.23 ± 0.25 | 4.38 ± 0.21
TPAMSSSSSSRVLLRQQLMRAQAQ [TFE3] | 3.65 ± 0.26 | 3.66 ± 0.42
LPPDMTVVPGDHLLEPEVADGGGA [KCNA3] | 5.35 ± 0.39 | 5.42 ± 0.096
TLAQFPETLLGDPEKRTQYFDPLR [KCNA4] | 3.5 ± 0.31 | 3.6 ± 0.36
HKKTTHKLNCDPSRIYKPQTRLKR [DFFB] | 4.07 ± 0.28 | 4.22 ± 0.25
TEVVRDAVRKLKFARHIKKSEGQK [GULP1] | 3.65 ± 0.37 | 3.85 ± 0.29
SAEKCGPPPPIDNGDITSFLLSVY [CFHR2] | 2.4 ± 0.16 | 2.33 ± 0.27
GSYGVVFKCRNKTSGQVVAVKKFV [CDKL4] | 2.02 ± 0.48 | 2.16 ± 0.46
IRLKESINCQLSDPSSTKPGTLLK [TRIM14] | 3.28 ± 0.3 | 3.48 ± 0.33
PEQVQNEIKSMKKRMSELCIDFNK [NLN] | 4.11 ± 0.44 | 4.23 ± 0.52

Sequence | protein stability index (treatment: DMSO) | protein stability index (treatment: MLN4924 1 uM, 8 h)
CKVDCEANLTPNVGGYFVDKFVAT [P3H4] | 2.84 ± 0.23 | 2.55 ± 0.29
LLVSLVTTVVVFVASMVLGECRQM [CLCN6] | 3.02 ± 0.73 | 3 ± 0.94
AVLASCSQYFRSLFSSHPPLGGGV [KLHL14] | 2.4 ± 0.37 | 2.22 ± 0.22
SGSGKSGGYGFGRGRASGFAGSMF [KRT71] | 2.8 ± 0.24 | 2.69 ± 0.41
FGGNPRFLSLHRAHLGEEAHKCLE [ZNF263] | 2.47 ± 0.5 | 3.14 ± 0.61
LEQASSHIGNSTQATVRDAVVGRP [ATL3] | 5.03 ± 0.26 | 5.03 ± 0.35
LNEEINIASSDSEVEIVGVQEHAR [C18orf25] | 5.27 ± 0.1 | 5.33 ± 0.18
TLTREQTERLSHQITSRVVSAATQ [RTN2] | 3.68 ± 0.19 | 3.75 ± 0.13
KKKCLEWLLNNLMTHQNVELFKEL [GMCL1] | 2.54 ± 0.17 | 2.83 ± 0.78
CVNGDVDKPSEPASEEGSESEGSE [SMG5] | 5.58 ± 0.23 | 5.51 ± 0.14
LRDKTVMIIVAISPKYKQDVEGAE [TRAF3IP2] | 2.4 ± 0.047 | 2.97 ± 0.69
STSAVPNLFVPLNTNPKEVQEMRN [ADD1] | 4.53 ± 0.21 | 4.43 ± 0.28
LHNLLLHQEGAKMAVRLAGGLQKM [CTNNB1] | 2.02 ± 0.22 | 2.36 ± 0.26
RAALTYTSLEITILTSQPGKEVVK [M1AP] | 2.32 ± 0.19 | 2.49 ± 0.34
PTLKKCEDVARPTQRLWDFTQSGP [GALNT9] | 3.69 ± 0.24 | 4 ± 0.17
YPWDENHCKEKRKTSLLDQLTNTS [NETO1] | 3.94 ± 0.21 | 4.07 ± 0.25
YERPNVETIKCVVVGDNAVGKTRL [RHOBTB1] | 3.71 ± 0.23 | 3.86 ± 0.21
VLLMAICIVSPDRPGVQDAALIEA [VDR] | 2.8 ± 0.33 | 2.77 ± 0.66
WNPDARYSEHFLQEAKLLHWNGRH [GLT8D2] | 2.81 ± 0.21 | 2.67 ± 0.27
IFLFQDILVLTRPVTRNERHSYQV [NET1] | 2.58 ± 0.28 | 2.27 ± 0.27
SSPSNMLPVRPQTNALIGGPMPMS [CLINT1] | 3.85 ± 0.22 | 3.7 ± 0.25
LIGRPGNKTQQVIHIIDFGLAKEY [CSNK1G3] | 2.38 ± 0.69 | 2.4 ± 0.43
